Target: 新型冠状病毒SARS-CoV-2和SARS-CoV以及动物来源的SARS-like冠状病毒S1
Test: ELISA, S1 proteins coated at 2 μg/mL, antibody titrated from 10 μg/mL

B1: 全人源广谱抗sarbecovirus和/或新冠突变株的抗体(VSCM8-83) (antibody, V domains shown)
VH: EVQLVEFGGGLVQPGGSLRLSCAASGFAVSSNYMSWVRQAPGKGLEWVSVIYGDGTTYYGDSVKGRFTISRHNSKNTLYLQMNSLRTEDTAVYYCARIVSEAFDLWGQGTMVTVSS
VL: DIQMTQSPSTLSASVGDRVTITCRASQSIGRWLAWYQQKPGKAPKLLIYMASILESGVPSRFSGSGSATEFTLTISSLQPDDFATYYCQQYNGYSQYTFGQGTKLEIKR
  EC50: 0.0397 to 0.0749 µg/mL
